Data on 3 sequences can be found in the supplement of paper PMC5998384.

Data set [1] deals with HeLa Kyoto. The experiment in a line: solubility change mitosis vs G1/S (difference of NP-40 vs SDS log2 ratios) (log2 ratio difference); higher = more soluble in mitosis.
For data set [2], the system named is HeLa Kyoto. The experiment in a line: thermal stability score vs G1/S (z-score of summed log2 fold changes over temperatures); higher = more thermally stable than in G1/S.
Data set [3] relates to HeLa Kyoto. Kind of data set: melting temperature (median over replicates), in situ; higher = more thermally stable.
In data set [4] the test system is HeLa Kyoto. The experiment in a line: solubility in G1/S (NP-40 vs SDS abundance) (log2 ratio); higher = more soluble. Particulars: cell cycle stage: G1/S.
The mark [5] stands for this setting: cell cycle stage: early G1 (4.5 h after nocodazole release).
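Throughout, for melting temperature (median over replicates), in situ: HeLa Kyoto cells synchronized by double thymidine or nocodazole block, proteins quantified by TMT10plex mass spectrometry, three independent biological replicates.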
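Throughout, for solubility change mitosis vs G1/S (difference of NP-40 vs SDS log2 ratios): synchronized HeLa Kyoto cells (double thymidine block for G1/S, nocodazole release for mitosis), protein amounts in NP-40 versus SDS lysates quantified by mass spectrometry, three biological replicates.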
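Throughout, for solubility in G1/S (NP-40 vs SDS abundance): HeLa Kyoto cells arrested at G1/S by double thymidine block, proteins quantified by TMT10plex mass spectrometry in mild NP-40 versus SDS extracts, three biological replicates.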
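Throughout, for thermal stability score vs G1/S (z-score of summed log2 fold changes over temperatures): synchronized HeLa Kyoto cells, proteins quantified by TMT10plex mass spectrometry, three biological replicates, mitosis taken 0.5 h after nocodazole release, G1/S directly after double thymidine block.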

Consider “MPAVSKGDGMRGLAVFISDIRNCKSKEAEIKRINKELANIRSKFKGDKALDGYSKKKYVCKLLFIFLLGHDIDFGHMEAVNLLSSNRYTEKQIGYLFISVLVNSNSELIRLINNAIKNDLASRNPTFMGLALHCIASVGSREMAEAFAGEIPKVLVAGDTMDSVKQSAALCLLRLYRTSPDLVPMGDWTSRVVHLLNDQHLGVVTAATSLITTLAQKNPEEFKTSVSLAVSRLSRIVTSASTDLQDYTYYFVPAPWLSVKLLRLLQCYPPPDPAVRGRLTECLETILNKAQEPPKSKKVQHSNAKNAVLFEAISLIIHHDSEPNLLVRACNQLGQFLQHRETNLRYLALESMCTLASSEFSHEAVKTHIETVINALKTERDVSVRQRAVDLLYAMCDRSNAPQIVAEMLSYLETADYSIREEIVLKVAILAEKYAVDYTWYVDTILNLIRIAGDYVSEEVWYRVIQIVINRDDVQGYAAKTVFEALQAPACHENLVKVGGYILGEFGNLIAGDPRSSPLIQFHLLHSKFHLCSVPTRALLLSTYIKFVNLFPEVKPTIQDVLRSDSQLRNADVELQQRAVEYLRLSTVASTDILATVLEEMPPFPERESSILAKLKKKKGPSTVTDLEDTKRDRSVDVNGGPEPAPASTSAVSTPSPSADLLGLGAAPPAPAGPPPSSGGSGLLVDVFSDSASVVAPLAPGSEDNFARFVCKNNGVLFENQLLQIGLKSEFRQNLGRMFIFYGNKTSTQFLNFTPTLICSDDLQPNLNLQTKPVDPTVEGGAQVQQVVNIECVSDFTEAPVLNIQFRYGGTFQNVSVQLPITLNKFFQPTEMASQDFFQRWKQLSNPQQEVQNIFKAKHPMDTEVTKAKIIGFGSALLEEVDPNPANFVGAGIIHTKTTQIGCLLRLEPNLQAQMYRLTLRTSKEAVSQRLCELLSAQF [AP2A2]”, for which the “solubility change mitosis (log2)” value in the data set with HeLa Kyoto [1] is -0.139. Also, the thermal stability score was -0.19 with HeLa Kyoto [2] (setting [5]) and -0.622 in the data set with HeLa Kyoto [2] (cell cycle stage: mitosis). Further, the melting temperature was 52.2 °C in the data set with HeLa Kyoto [3] (cell cycle stage: G1/S) and 51.7 °C in the data set with HeLa Kyoto [3] (cell cycle stage: mitosis). Moreover, the “solubility in G1/S (log2)” value with HeLa Kyoto [4] is -0.202.
With “MAGTRWVLGALLRGCGCNCSSCRRTGAACLPFYSAAGSIPSGVSGRRRLLLLLGAAAAAASQTRGLQTGPVPPGRLAGPPAVATSAAAAAAASYSALRASLLPQSLAAAAAVPTRSYSQESKTTYLEDLPPPPEYELAPSKLEEEVDDVFLIRAQGLPWSCTMEDVLNFFSDCRIRNGENGIHFLLNRDGKRRGDALIEMESEQDVQKALEKHRMYMGQRYVEVYEINNEDVDALMKSLQVKSSPVVNDGVVRLRGLPYSCNEKDIVDFFAGLNIVDITFVMDYRGRRKTGEAYVQFEEPEMANQALLKHREEIGNRYIEIFPSRRNEVRTHVGSYKGKKIASFPTAKYITEPEMVFEEHEVNEDIQPMTAFESEKEIELPKEVPEKLPEAADFGTTSSLHFVHMRGLPFQANAQDIINFFAPLKPVRITMEYSSSGKATGEADVHFETHEDAVAAMLKDRSHVHHRYIELFLNSCPKGK [GRSF1]”, the “solubility change mitosis (log2)” value with HeLa Kyoto [1] was -0.0298. The thermal stability score was determined as 0.523 in the data set with HeLa Kyoto [2] (setting [5]) and 3.06 in the data set with HeLa Kyoto [2] (cell cycle stage: mitosis). Further, the melting temperature in the data set with HeLa Kyoto [3] (cell cycle stage: G1/S) came to 47.9 °C; with HeLa Kyoto [3] (cell cycle stage: mitosis), 49.1 °C. The “solubility in G1/S (log2)” value in the data set with HeLa Kyoto [4] came out at 0.345.
On to “MEPATAPRPDMAPELTPEEEQATKQFLEEINKWTVQYNVSPLSWNVAVKFLMARKFDVLRAIELFHSYRETRRKEGIVKLKPHEEPLRSEILSGKFTILNVRDPTGASIALFTARLHHPHKSVQHVVLQALFYLLDRAVDSFETQRNGLVFIYDMCGSNYANFELDLGKKVLNLLKGAFPARLKKVLIVGAPIWFRVPYSIISLLLKDKVRERIQILKTSEVTQHLPRECLPENLGGYVKIDLATWNFQFLPQVNGHPDPFDEIILFSLPPALDWDSVHVPGPHAMTIQELVDYVNARQKQGIYEEYEDIRRENPVGTFHCSMSPGNLEKNRYGDVPCLDQTRVKLTKRSGHTQTDYINASFMDGYKQKNAYIGTQGPLENTYRDFWLMVWEQKVLVIVMTTRFEEGGRRKCGQYWPLEKDSRIRFGFLTVTNLGVENMNHYKKTTLEIHNTEERQKRQVTHFQFLSWPDYGVPSSAASLIDFLRVVRNQQSLAVSNMGARSKGQCPEPPIVVHCSAGIGRTGTFCSLDICLAQLEELGTLNVFQTVSRMRTQRAFSIQTPEQYYFCYKAILEFAEKEGMVSSGQNLLAVESQ [PTPN9]”, for which the “solubility change mitosis (log2)” value with HeLa Kyoto [1] is -0.094. Moreover, the figures for the thermal stability score in the data set on HeLa Kyoto [2] (setting [5]) and in the data set with HeLa Kyoto [2] (cell cycle stage: mitosis) were 1.02 and -0.717, respectively. In addition, the melting temperature in the data set on HeLa Kyoto [3] (cell cycle stage: G1/S) came out at 51.1 °C; in the data set with HeLa Kyoto [3] (cell cycle stage: mitosis) it was 51.7 °C. Besides, the “solubility in G1/S (log2)” value in the data set on HeLa Kyoto [4] was -0.0379.
